Drawing on patent US20200024330A1, this text covers IC50, pseudovirus neutralization (TZM-bl), IC50 (ug/ml), neutralization and IC50, pseudovirus neutralization (TZM-bl), control virus for two molecules.

Residue numbers refer to the chain shown, from its start.

Holding throughout (test): cell-based or functional assay
Experiment [1] deals with HIV-1 Env of isolate ZM233 (HIV-1).
The target in experiment [2] is HIV-1 Env of isolate REJ04541 (HIV-1).
Experiment [3] concerns the target HIV-1 Env of isolate ZM249 (HIV-1).
Experiment [4] deals with HIV-1 JR-FL Env E168K (pseudovirus) (HIV-1 JR-FL).
Experiment [5] deals with HIV-1 JR-CSF Env I309A (pseudovirus) (HIV-1 JR-CSF) (UniProt P20871).
For experiment [6], the target named is HIV-1 Env of isolate TR0.11 (HIV-1).
The target in experiment [7] is HIV-1 ADA Env (pseudovirus) (HIV-1 ADA).
The target in experiment [8] is HIV-1 Env of isolate AC10 (HIV-1).
Experiment [9] deals with HIV-1 Env of isolate CAP45 (HIV-1).
Experiment [10] deals with MuLV envelope protein (control pseudovirus) (MuLV).
For experiment [11], the target named is HIV-1 Env of isolate ZM214 (HIV-1).
The target in experiment [12] is HIV-1 JR-CSF Env, wild type (pseudovirus) (HIV-1 JR-CSF) (UniProt P20871).
Experiment [13] concerns the target HIV-1 Env of isolate CAAN (HIV-1).
Experiment [14] has as its target HIV-1 Env of isolate THRO.18 (HIV-1).
Experiment [15] addresses HIV-1 Env of isolate DU422 (HIV-1).
The target of experiment [16] is HIV-1 92RW020 Env (pseudovirus) (HIV-1 92RW020).
For experiment [17], the target named is HIV-1 Env of isolate DU156 (HIV-1).
The target of experiment [18] is HIV-1 Env of isolate Du172 (HIV-1).
Experiment [19] concerns the target HIV-1 JR-CSF Env Y318A (pseudovirus) (HIV-1 JR-CSF) (UniProt P20871).
The target of experiment [20] is HIV-1 Env of isolate PVO.4 (HIV-1).

B1: 1469_M23 (PG16) (TCN-118) (antibody, V domains shown)
VH: QEKLVESGGGVVQPGGSLRLSCLASGFTFHKYGMHWVRQAPGKGLEWVALISDDGMRKYHSDSMWGRVTISRDNSKNTLYLQFSSLKVEDTAMFFCAREAGGPIWHDDVKYYDFNDGYYNYHYMDVWGKGTTVTVSS
VL: QSALTQPASVSGSPGQTITISCNGTRSDVGGFDSVSWYQQSPGRAPKVMVFDVSHRPSGISNRFSGSKSGNTASLTISGLHIEDEGDYFCSSLTDRSHRIFGGGTKLTVLG
For B1, the IC50, pseudovirus neutralization (TZM-bl) in [1] is under 0.01 µg/mL; in experiment [2] it was 0.39 µg/mL; in experiment [3], under 0.01 µg/mL; in [6], 7.52 µg/mL; in experiment [8], under 0.01 µg/mL; in [9] it was under 0.01 µg/mL. In addition, the IC50, pseudovirus neutralization (TZM-bl) was over 25 µg/mL in experiment [11]; 17.7 µg/mL in experiment [13]; 7.01 µg/mL in [14]; 0.97 µg/mL in experiment [15]; under 0.01 µg/mL in experiment [17]; under 0.01 µg/mL in experiment [18]. This molecule also displayed an IC50, pseudovirus neutralization (TZM-bl) in [20] of 21.2 µg/mL. Moreover, the IC50 (ug/ml), neutralization in experiment [4] was 0.005 µg/mL; in experiment [5], over 1 µg/mL; in experiment [7], 0.005 µg/mL; in [12], 0.002 µg/mL; in experiment [16], 0.05 µg/mL; in [19] it was over 1 µg/mL. Also, the IC50, pseudovirus neutralization (TZM-bl), control virus in experiment [10] is over 25 µg/mL.

B2: 1489_I13 (PG16) (TCN-120) (antibody, V domains shown)
VH: B1 VH with K3Q, V5L, D62N
VL: B1 VL with R26S, R44K, L107V
As for B2, the IC50, pseudovirus neutralization (TZM-bl) is under 0.01 µg/mL in experiment [1]; 0.34 µg/mL in [2]; under 0.01 µg/mL in experiment [3]; 10.9 µg/mL in experiment [6]; under 0.01 µg/mL in [8]; under 0.01 µg/mL in experiment [9]. Moreover, the IC50, pseudovirus neutralization (TZM-bl) in experiment [11] is over 25 µg/mL; in [13], 24.9 µg/mL; in experiment [14], 7.41 µg/mL; in experiment [15] it was 1.87 µg/mL; in [17], under 0.01 µg/mL; in experiment [18] it was under 0.01 µg/mL. In addition, the IC50, pseudovirus neutralization (TZM-bl) in experiment [20] is 20.6 µg/mL. The IC50 (ug/ml), neutralization in experiment [4] was 0.005 µg/mL; in [5] it was over 1 µg/mL; in experiment [7] it was 0.008 µg/mL; in experiment [12], 0.002 µg/mL; in experiment [16] it was 0.03 µg/mL; in experiment [19], over 1 µg/mL. Moreover, the IC50, pseudovirus neutralization (TZM-bl), control virus in experiment [10] is over 25 µg/mL.
